Experimental findings from the RNAGym collection of RNA variant scans (doi:10.7554/elife.80360) are described below.

The chains are these.
B1: CPEB3 Ribozyme (parent)
chain: GGGGGCCACAGCAGAAGCGUUCACGUCGCGGCCCCUGUCAGAUUCUGGUGAAUCUGCGAAUUCUGCUGU

The data set covers variants of B1. Nature of the data set: self-cleavage, relative activity (ratio to wild type); higher = more cleavage; co-transcriptional.
In the case of C18G C35U, the self-cleavage turned out to be 0.203.
The result for C18G C35G reads 0.151; that for G17U C27A, 0.132; that for G17U C27G, 0.185.
Regarding C18A U38C, the self-cleavage is 0.0484.
Take C18A U38A: the self-cleavage was determined as 0.0704.
The result for C18A G48U reads 0.186; that for G17U U44A, 0.395; that for G17U U44C, 0.368.
The result for G17U U61A reads 0.333; that for G17U G47A, 0.683; that for G17U G47C, 0.69.
Then G17C U49C, with 0.158.
With G17C U49G, the self-cleavage is 0.148.
Then G17C U49A, with 0.149; and G17C C39A, with 0.081; and G17C C39G, with 0.115.
The result for C18G A23C reads 0.187; that for C18G C29A, 0.16; that for C18G C29U, 0.156.
For the variant G17C C33A, the self-cleavage worked out at 0.152.
Then G17C C33U, with 0.139; and C18A G47A, with 0.232; and C18A G47C, with 0.181.
The result for C18A G47U reads 0.203; that for C18A U20C, 0.158; that for G17C C57A, 0.147.
The result for G17C C57U reads 0.18; that for G17U C22A, 0.132.
As to G17U C22U, the self-cleavage is 0.169.
Then G17U C22G, with 0.112; and G17U G41A, with 0.152.
Then G17U G41C, with 0.14; and G17U G41U, with 0.194; and C18A U36A, with 0.182.
The result for C18A U36C reads 0.142; that for G17C U38G, 0.101; that for G17C U38C, 0.137.
With G17C U20A, the self-cleavage was 0.123.
The result for G17C U20G reads 0.132; that for C18A U21G, 0.109; that for C18A U21C, 0.181.
For C18A U21A, the self-cleavage worked out at 0.107.
Then G17C U55C, with 0.138.
The result for G17C U55G reads 0.062.
The result for C18G C66A reads 0.11.
Turning to C18A U44A, the self-cleavage was found to be 0.185.
As to C18A U44G, the self-cleavage was 0.123.
The result for C18A G41U reads 0.211; that for C18A G41C, 0.119.
Then C18G C24A, with 0.105.
Then G17U C39G, with 0.289.
In the case of G17U C39A, the self-cleavage is 0.167.
For the variant C18A A40U, the self-cleavage was found to be 0.0764.
The result for C18A A40G reads 0.176.
The result for G17U C32A reads 0.154.
Then G17C G50U, with 0.157.
Take G17C G50A: the self-cleavage stood at 0.142.
Then G17U A23G, with 0.331; and G17U A23C, with 0.462.
Then C18A A59C, with 0.0942; and G17U C34U, with 0.514; and G17U C34G, with 0.177.
The result for C18A U67A reads 0.268.
Take C18A U67G: the self-cleavage worked out at 0.348.
Then C18A U67C, with 0.23; and G17U U46C, with 0.537.
The result for G17U A60U reads 0.229; that for G17U A60C, 0.185.
Take G17U A60G: the self-cleavage was found to be 0.248.
Then G17U G65U, with 0.292.
The result for G17U G65A reads 0.254.
Then G17U U21A, with 0.367; and G17U U21G, with 0.0999; and G17U C29G, with 0.885.
With G17U C29A, the self-cleavage came to 0.921.
The result for G17U C29U reads 0.268; that for G17U G19A, 0.209.
The result for G17U G19U reads 0.123; that for G17C G30A, 0.154.
For G17C G30U, the self-cleavage came to 0.206.
The result for G17C G30C reads 0.134.
Regarding C18G C57U, the self-cleavage was 0.145.
With C18G C57A, the self-cleavage worked out at 0.0895.
In the case of G17U C66G, the self-cleavage came to 0.24.
Consider G17C G56U, for which the self-cleavage is 0.115.
With G17C G56A, the self-cleavage is 0.103.
The result for G17C G56C reads 0.105; that for C18G A60C, 0.0758.
The result for C18G A60U reads 0.154.
Then C18G A60G, with 0.137.
For the variant C18A C24U, the self-cleavage worked out at 0.0604.
The result for C18A C24A reads 0.142.
The result for G17U C33A reads 0.228; that for G17U C33U, 0.347.
For C18G C22G, the self-cleavage came to 0.236.
Then C18G C22A, with 0.179; and G17U A52C, with 0.5; and G17U A52G, with 0.585.
Then G17U U43C, with 0.446.
The result for G17C G31C reads 0.14; that for G17C G31U, 0.103.
As for G17U G50A, the self-cleavage is 0.571.
The result for G17U G50U reads 0.552.
As for G17U G50C, the self-cleavage came to 0.386.
The result for G17U C63U reads 0.322.
Then G17U C63G, with 0.229; and G17U C63A, with 0.182; and C18A C35G, with 0.104.
The result for C18A C35U reads 0.222.
For the variant C18A, the self-cleavage stood at 0.2.
The result for C18G reads 0.188; that for G17C C32U, 0.136; that for G17C C32A, 0.113.
Take C18A U49G: the self-cleavage was 0.259.
Then G17C G19A, with 0.103; and G17C G19U, with 0.0627; and G17C G19C, with 0.118.
The result for C18A C33U reads 0.251; that for C18A C33G, 0.123; that for C18G C33U, 0.226.
Then C18G C33G, with 0.147; and C18G C33A, with 0.193; and C18A G31A, with 0.187.
In the case of C18A G31C, the self-cleavage worked out at 0.124.
Then C18A G31U, with 0.129; and C18A C39U, with 0.136.
Then C18A C39A, with 0.156; and C18A C39G, with 0.142; and C18A A51U, with 0.181.
As for C18A A51G, the self-cleavage was 0.233.
Then G17U G37U, with 0.169.
Then G17U G37A, with 0.175; and G17U G37C, with 0.159; and C18G C54A, with 0.186.
The result for G17C G68A reads 0.331; that for G17C G68C, 0.242.
In the case of G17U U53G, the self-cleavage came to 0.336.
Consider G17U U53A, for which the self-cleavage came to 0.265.
Consider G17C C27G, for which the self-cleavage is 0.156.
In the case of G17C C27A, the self-cleavage amounted to 0.129.
Take G17C U36G: the self-cleavage stood at 0.163.
The result for G17C U36A reads 0.18.
The result for G17U G58C reads 0.527; that for G17U G58U, 0.65.
The result for G17C U64G reads 0.171; that for G17C U64C, 0.203; that for G17C U64A, 0.112.
As for C18A U55G, the self-cleavage amounted to 0.113.
Regarding C18A U55A, the self-cleavage stood at 0.142.
As to C18A G56C, the self-cleavage came to 0.186.
The result for C18A U46A reads 0.217; that for C18A U46G, 0.219; that for C18G A52U, 0.0952.
The result for G17C U61G reads 0.205; that for G17C U61C, 0.118; that for C18A U43A, 0.117.
For the variant C18A U43G, the self-cleavage worked out at 0.117.
The result for C18A A60U reads 0.131.
The result for C18A G37A reads 0.14; that for C18A G37U, 0.121; that for G17U U38A, 0.255.
The result for G17U U38G reads 0.149; that for G17C G58C, 0.198.
Turning to G17C G58U, the self-cleavage amounted to 0.227.
Then G17C G58A, with 0.139; and G17U C24G, with 0.0814.
